In patent US20230143604A1, “QW DOSING OF GIP RECEPTOR AGONIST PEPTIDE COMPOUNDS AND USES THEREOF” (TAKEDA PHARMACEUTICAL COMPANY LIMITED, priority 2020, published 2023):
Starred links: 1 amine or outer side, 2 acyl side, 3 side chain; linkers in the order of their positions; H or OH if unused. Non-standard residues stand in square brackets, D forms with d. Residues, ends and D or L forms follow the SMILES beside them. Groups on a side chain read outwards from the residue. No end group written: not given here. *: point of attachment. 2OEGgEgE‑C18 diacid = O=C(O)CCCCCCCCCCCCCCCCC(=O)N[C@@H](CCC(=O)N[C@@H](CCC(=O)NCCOCCOCC(=O)NCCOCCOCC(=O)*)C(=O)O)C(=O)O; C18 diacid = O=C(O)CCCCCCCCCCCCCCCCC(=O)*; C17 diacid = O=C(O)CCCCCCCCCCCCCCCC(=O)*; γGlu = O=C(O)[C@H](CCC(=O)[*:2])N[*:1]; NMeY = CN[C@@H](Cc1ccc(O)cc1)C(=O)O; AEEA = NCCOCCOCC(=O)O; Aib = CC(C)(N)C(=O)O

T1: full-length human GIPR with an N-terminal FLAG tag (human, UniProt P48546 22-466)
T1 sequence (looked up): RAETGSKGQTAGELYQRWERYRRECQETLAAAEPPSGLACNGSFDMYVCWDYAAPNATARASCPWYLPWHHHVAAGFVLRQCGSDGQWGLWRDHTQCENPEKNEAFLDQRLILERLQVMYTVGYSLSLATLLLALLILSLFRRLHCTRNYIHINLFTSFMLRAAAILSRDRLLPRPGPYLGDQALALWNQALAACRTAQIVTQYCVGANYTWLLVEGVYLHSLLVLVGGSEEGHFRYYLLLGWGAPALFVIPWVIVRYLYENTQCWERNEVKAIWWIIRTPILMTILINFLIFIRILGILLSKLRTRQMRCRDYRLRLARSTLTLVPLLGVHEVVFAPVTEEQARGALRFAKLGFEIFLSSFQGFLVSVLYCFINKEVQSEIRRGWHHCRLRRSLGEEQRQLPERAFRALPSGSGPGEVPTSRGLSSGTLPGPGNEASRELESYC


How the values were obtained:
physchem = assay: physchem
Outline: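 3 mg of peptide treated with 100 μL portions of 200 mM phosphate buffer pH 7.4, sonicating/vortexing up to 1 min, with further buffer added until fully dissolved. Solubility then quantified by HPLC.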

[1] = target: full-length human GLP-1R with an N-terminal FLAG tag (human, UniProt P43220 24-463); assay: cell-based or functional assay
[2] = target: T1, full-length human GIPR with an …; assay: cell-based or functional assay

Molecule | solubility (physchem; pH 7.4) [mg/mL] | solubility (physchem; pH 7.4, aqueous buffer) [mg/mL] | Human GLP1R cAMP EC50, HEK293T [1] [pM] | Human GIPR cAMP EC50, HEK293T [2] [pM] | further results
CC[C@H](C)[C@H](NC(=O)[C@H](Cc1ccccc1)NC(=O)[C@@H](NC(=O)CNC(=O)[C@H](CCC(=O)O)NC(=O)C(C)(C)NC(=O)[C@H](Cc1ccc(O)cc1)NC)[C@@H](C)O)C(=O)N[C@@H](CO)C(=O)N[C@@H](CC(=O)O)C(=O)N[C@@H](Cc1ccc(O)cc1)C(=O)N[C@@H](CO)C(=O)N[C@H](C(=O)NC(C)(C)C(=O)N[C@@H](CC(C)C)C(=O)N[C@@H](CC(=O)O)C(=O)N[C@@H](CCCNC(=N)N)C(=O)NC(C)(C)C(=O)N[C@@H](C)C(=O)N[C@@H](CCC(N)=O)C(=O)NC(C)(C)C(=O)N[C@@H](CCCCNC(=O)COCCOCCNC(=O)COCCOCCNC(=O)CC[C@H](NC(=O)CC[C@H](NC(=O)CCCCCCCCCCCCCCCC(=O)O)C(=O)O)C(=O)O)C(=O)N[C@@H](Cc1ccccc1)C(=O)N[C@H](C(=O)N[C@@H](CC(N)=O)C(=O)N[C@@H](Cc1c[nH]c2ccccc12)C(=O)N[C@@H](CC(C)C)C(=O)N[C@@H](CC(C)C)C(=O)N[C@@H](C)C(=O)N[C@@H](CCC(N)=O)C(=O)N[C@@H](CCCNC(=N)N)C(=O)NCC(=O)O)C(C)C)[C@@H](C)CC [Compound 127] (H-[NMeY][Aib]EGTFISDYSI[Aib]LDR[Aib]AQ[Aib]K([AEEA-AEEA-γGlu-γGlu-C17 diacid])FVNWLLAQRG-OH) | ≥ 15 | ≥ 30 | – | – | –
CC[C@H](C)[C@H](NC(=O)[C@H](CO)NC(=O)[C@H](Cc1ccc(O)cc1)NC(=O)[C@H](CC(=O)O)NC(=O)[C@H](CO)NC(=O)[C@@H](NC(=O)[C@H](Cc1ccccc1)NC(=O)[C@@H](NC(=O)CNC(=O)[C@H](CCC(=O)O)NC(=O)C(C)(C)NC(=O)[C@H](Cc1ccc(O)cc1)NC)[C@@H](C)O)[C@@H](C)CC)C(=O)N[C@@H](C)C(=O)N[C@@H](CCCCNC(=O)CNC(=O)CNC(=O)CNC(=O)CNC(=O)CC[C@H](NC(=O)CCCCCCCCCCCCCCCCC(=O)O)C(=O)O)C(=O)N[C@@H](CC(=O)O)C(=O)N[C@@H](CO)C(=O)NC(C)(C)C(=O)N[C@@H](C)C(=O)N[C@@H](CCC(N)=O)C(=O)NC(C)(C)C(=O)N[C@@H](CC(=O)O)C(=O)N[C@@H](Cc1ccccc1)C(=O)N[C@H](C(=O)N[C@@H](CC(N)=O)C(=O)N[C@@H](Cc1c[nH]c2ccccc12)C(=O)N[C@@H](CC(C)C)C(=O)N[C@@H](CC(C)C)C(=O)N[C@@H](C)C(=O)N[C@@H](CCC(N)=O)C(=O)N[C@@H](CCCCN)C(=O)NCC(=O)O)C(C)C [Compound 79] (H-[NMeY][Aib]EGTFISDYSIAK([Gly-Gly-Gly-Gly-γGlu-C18 diacid])DS[Aib]AQ[Aib]DFVNWLLAQKG-OH) | ≥ 15 | ≥ 30 | – | – | –
CC[C@H](C)[C@H](NC(=O)[C@H](CO)NC(=O)[C@H](Cc1ccc(O)cc1)NC(=O)[C@H](CC(=O)O)NC(=O)[C@H](CO)NC(=O)[C@@H](NC(=O)[C@H](Cc1ccccc1)NC(=O)[C@@H](NC(=O)CNC(=O)[C@H](CCC(=O)O)NC(=O)C(C)(C)NC(=O)[C@H](Cc1ccc(O)cc1)NC)[C@@H](C)O)[C@@H](C)CC)C(=O)N[C@@H](C)C(=O)N[C@@H](CC(C)C)C(=O)N[C@@H](CCCCN)C(=O)N[C@@H](CCCNC(=N)N)C(=O)N[C@@H](CCCCNC(=O)CNC(=O)CNC(=O)CNC(=O)CNC(=O)CNC(=O)CNC(=O)CCCCCCCCCCCCCCCCC(=O)O)C(=O)N[C@@H](Cc1c[nH]cn1)C(=O)N[C@@H](CCC(N)=O)C(=O)NC(C)(C)C(=O)N[C@@H](CC(N)=O)C(=O)N[C@@H](Cc1ccccc1)C(=O)N[C@H](C(=O)N[C@@H](CC(N)=O)C(=O)N[C@@H](Cc1c[nH]c2ccccc12)C(=O)N[C@@H](CC(C)C)C(=O)N[C@@H](CC(C)C)C(=O)N[C@@H](C)C(=O)N[C@@H](CCC(N)=O)C(=O)N[C@@H](CCCNC(=N)N)C(=O)N1CCC[C@H]1C(=O)N[C@@H](CO)C(=O)N[C@@H](CO)C(=O)NCC(=O)N[C@@H](C)C(=O)N1CCC[C@H]1C(=O)N1CCC[C@H]1C(=O)N1CCC[C@H]1C(=O)N[C@@H](CO)C(=O)N[C@@H](CCCNC(=N)N)C(N)=O)C(C)C [Compound 280] | – | – | – | – | solubility (physchem; pH 7.4, aqueous buffer, pH 7.4 Phosphate Buffer - Solubility, 200 mM Phosphate buffer pH 7.4): < 15 mg/mL
CC[C@H](C)[C@H](NC(=O)[C@H](CO)NC(=O)[C@H](Cc1ccc(O)cc1)NC(=O)[C@H](CC(=O)O)NC(=O)[C@H](CO)NC(=O)[C@@H](NC(=O)[C@H](Cc1ccccc1)NC(=O)[C@@H](NC(=O)CNC(=O)[C@H](CCC(=O)O)NC(=O)C(C)(C)NC(=O)[C@@H](N)Cc1ccc(O)cc1)[C@@H](C)O)[C@@H](C)CC)C(=O)N[C@@H](C)C(=O)N[C@@H](CC(C)C)C(=O)N[C@@H](CC(=O)O)C(=O)N[C@@H](CCCCN)C(=O)N[C@H](C(=O)N[C@@H](CCCCNC(=O)COCCOCCNC(=O)COCCOCCNC(=O)CC[C@H](NC(=O)CCCCCCCCCCCCCCCCC(=O)O)C(=O)O)C(=O)N[C@@H](CCC(N)=O)C(=O)NC(C)(C)C(=O)N[C@@H](CC(=O)O)C(=O)N[C@@H](Cc1ccccc1)C(=O)N[C@H](C(=O)N[C@@H](CCC(=O)O)C(=O)N[C@@H](Cc1c[nH]c2ccccc12)C(=O)N[C@@H](CC(C)C)C(=O)N[C@@H](CC(C)C)C(=O)N[C@@H](C)C(=O)N[C@@H](CCC(N)=O)C(=O)N[C@@H](CCCNC(=N)N)C(=O)NCC(=O)O)C(C)C)[C@@H](C)CC [Compound 160] (H-Y[Aib]EGTFISDYSIALDKIK([AEEA-AEEA-γGlu-C18 diacid])Q[Aib]DFVEWLLAQRG-OH) | ≥ 15 | ≥ 30 | – | – | –
CC[C@H](C)[C@H](NC(=O)[C@H](Cc1ccccc1)NC(=O)[C@@H](NC(=O)CNC(=O)[C@H](CCC(=O)O)NC(=O)C(C)(C)NC(=O)[C@H](Cc1ccc(O)cc1)NC)[C@@H](C)O)C(=O)N[C@@H](CO)C(=O)N[C@@H](CC(=O)O)C(=O)N[C@@H](Cc1ccc(O)cc1)C(=O)N[C@@H](CO)C(=O)N[C@H](C(=O)NC(C)(C)C(=O)N[C@@H](CC(C)C)C(=O)N[C@@H](CC(=O)O)C(=O)N[C@@H](CCCNC(=N)N)C(=O)NC(C)(C)C(=O)N[C@@H](CCCCNC(=O)COCCOCCNC(=O)COCCOCCNC(=O)CC[C@H](NC(=O)CC[C@H](NC(=O)CCCCCCCCCCCCCCCCC(=O)O)C(=O)O)C(=O)O)C(=O)N[C@@H](CCC(N)=O)C(=O)NC(C)(C)C(=O)N[C@@H](CC(N)=O)C(=O)N[C@@H](Cc1ccccc1)C(=O)N[C@H](C(=O)N[C@@H](CC(N)=O)C(=O)N[C@@H](Cc1c[nH]c2ccccc12)C(=O)N[C@@H](CC(C)C)C(=O)N[C@@H](CC(C)C)C(=O)N[C@@H](C)C(=O)N[C@@H](CCC(N)=O)C(=O)N[C@@H](CCCNC(=N)N)C(=O)NCC(=O)O)C(C)C)[C@@H](C)CC [Compound 74] (H-[NMeY][Aib]EGTFISDYSI[Aib]LDR[Aib]K([AEEA-AEEA-γGlu-γGlu-C18 diacid])Q[Aib]NFVNWLLAQRG-OH) | ≥ 15 | ≥ 30 | – | – | –
[NMeY][Aib]EGTFISDYSIALDRK(2OEGgE‑C18 diacid)HQQNFVNWLLAQRPSSGAPPPS-NH2 [Compound No. 4] | – | – | 38900 | 1 | –
YXEGTFISDYSIXXDRXAQXDFVNWLLAQRPSSGAPPPS (N-methyl Tyr 1; Aib at 2,13,17,20; Lys(G5-C18 diacid) at 14; C-terminal OH) [Compound No. 54] | – | – | 120000 | 0.6 | –
YXEGTFISDYSIAXDRXAQXNFVNWLLAQSPSSGAPPPS (N-methyl Tyr 1; Aib at 2,17,20; Lys(G5-C20 diacid) at 14; C-terminal OH) [Compound No. 40] | – | – | – | 0.7 | –
YXEGTFISDYSIAXDRXAQXNFVNWLLAQSPSSGAPPPS (N-methyl Tyr 1; Aib at 2,17,20; Lys(G5-C20 diacid) at 14; C-terminal OH) [Compound No. 112] | – | – | – | 0.3 | –
[NMeY][Aib]EGTFISDYSIALDR[Aib]AQ[Aib]NFVNWLLAK(2OEGgEgE‑C18 diacid)RG-OH (N-terminus assumed; SMILES CC[C@H](C)[C@H](NC(=O)[C@H](CO)NC(=O)[C@H](Cc1ccc(O)cc1)NC(=O)[C@H](CC(=O)O)NC(=O)[C@H](CO)NC(=O)[C@@H](NC(=O)[C@H](Cc1ccccc1)NC(=O)[C@@H](NC(=O)CNC(=O)[C@H](CCC(=O)O)NC(=O)C(C)(C)NC(=O)[C@H](Cc1ccc(O)cc1)NC)[C@@H](C)O)[C@@H](C)CC)C(=O)N[C@@H](C)C(=O)N[C@@H](CC(C)C)C(=O)N[C@@H](CC(=O)O)C(=O)N[C@@H](CCCNC(=N)N)C(=O)NC(C)(C)C(=O)N[C@@H](C)C(=O)N[C@@H](CCC(N)=O)C(=O)NC(C)(C)C(=O)N[C@@H](CC(N)=O)C(=O)N[C@@H](Cc1ccccc1)C(=O)N[C@H](C(=O)N[C@@H](CC(N)=O)C(=O)N[C@@H](Cc1c[nH]c2ccccc12)C(=O)N[C@@H](CC(C)C)C(=O)N[C@@H](CC(C)C)C(=O)N[C@@H](C)C(=O)N[C@@H](CCCCNC(=O)COCCOCCNC(=O)COCCOCCNC(=O)CC[C@H](NC(=O)CC[C@H](NC(=O)CCCCCCCCCCCCCCCCC(=O)O)C(=O)O)C(=O)O)C(=O)N[C@@H](CCCNC(=N)N)C(=O)NCC(=O)O)C(C)C) [Compound No. 55] | – | – | 741000 | 0.9 | –
YXEGTFISDYSIXXDRXAQXDFVNWLLAQSG (N-methyl Tyr 1; Aib at 2,13,17,20; Lys(G5-C18 diacid) at 14; C-terminal OH) [Compound No. 53] | – | – | 47900 | 0.5 | –
